Assay results: paper PMC9683861 (Journal of Molecular Biology, 2022)
Non-standard residues stand in square brackets, D forms with d. No end group written: not given here. pT = C[C@@H](OP(=O)(O)O)[C@H](N)C(=O)O; pS = N[C@@H](COP(=O)(O)O)C(=O)O

Columns and labels:
[1] = target: T1, FITC-labeled SARS-CoV-2 N pS197 phosphopeptide WSSRNpSTPGSS (SARS-CoV-2, also: FITC label, position not given here); assay: fluorescence polarisation
T1 peptide: WSSRN[pS]TPGSS

[2] = target: T2, 14-3-3σ (1-231 aa) (75EEK77→75AAA77, Clu3) (human, UniProt P31947 1-231, 75EEK77 → 75AAA77); assay: crystal structure
T2 sequence: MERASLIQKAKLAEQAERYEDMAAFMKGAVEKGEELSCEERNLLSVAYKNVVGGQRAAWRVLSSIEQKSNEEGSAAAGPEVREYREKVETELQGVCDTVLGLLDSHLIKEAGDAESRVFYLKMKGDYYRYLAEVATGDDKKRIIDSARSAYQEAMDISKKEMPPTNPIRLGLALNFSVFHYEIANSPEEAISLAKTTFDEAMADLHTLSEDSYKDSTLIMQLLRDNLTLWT

[3] = target: T3, 14-3-3σ (1-231 aa) (159KKE161→159AAA161, Clu1) (human, UniProt P31947 1-231, 159KKE161 → 159AAA161); assay: crystal structure
T3 sequence: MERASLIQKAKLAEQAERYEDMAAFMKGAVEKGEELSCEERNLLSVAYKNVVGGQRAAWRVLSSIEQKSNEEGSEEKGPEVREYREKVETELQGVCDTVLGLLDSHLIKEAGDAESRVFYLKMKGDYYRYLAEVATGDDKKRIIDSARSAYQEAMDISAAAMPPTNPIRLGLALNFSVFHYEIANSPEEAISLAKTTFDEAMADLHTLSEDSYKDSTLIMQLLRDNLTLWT

[4] = target: T4, FITC-labeled SARS-CoV-2 N pT205 phosphopeptide WSSRGpTSPARM (SARS-CoV-2, also: FITC label, position not given here); assay: fluorescence polarisation
T4 peptide: WSSRG[pT]SPARM

B1: MBP-tagged full-length human 14-3-3 sigma (σ) (natural protein)
chain: MERASLIQKAKLAEQAERYEDMAAFMKGAVEKGEELSCEERNLLSVAYKNVVGGQRAAWRVLSSIEQKSNEEGSEEKGPEVREYREKVETELQGVCDTVLGLLDSHLIKEAGDAESRVFYLKMKGDYYRYLAEVATGDDKKRIIDSARSAYQEAMDISKKEMPPTNPIRLGLALNFSVFHYEIANSPEEAISLAKTTFDEAMADLHTLSEDSYKDSTLIMQLLRDNLTLWTADNAGEEGGEAPQEPQS
[1]
  KD ratio to the 14-3-3γ/pT205 pair: ~10 fold
  fold weaker affinity than of 14-3-3σ for the pT205 peptide: ~3 fold

## WSSRN[pS]TPGSS [Unlabeled SARS-CoV-2 N pS197 phosphopeptide WSSRNpSTPGSS]
[2]
  binding result: binds

## WSSRG[pT]SPARM [Unlabeled SARS-CoV-2 N pT205 phosphopeptide WSSRGpTSPARM]
[3]
  binding result: binds

B2: MBP-tagged full-length human 14-3-3 gamma (γ) (natural protein)
chain: MVDREQLVQKARLAEQAERYDDMAAAMKNVTELNEPLSNEERNLLSVAYKNVVGARRSSWRVISSIEQKTSADGNEKKIEMVRAYREKIEKELEAVCQDVLSLLDNYLIKNCSETQYESKVFYLKMKGDYYRYLAEVATGEKRATVVESSEKAYSEAHEISKEHMQPTHPIRLGLALNYSVFYYEIQNAPEQACHLAKTAFDDAIAELDTLNEDSYKDSTLIMQLLRDNLTLWTSDQQDDDGGEGNN
[4]
  KD ratio pS197 peptide / pT205 peptide (selectivity coefficient): ~7 fold
